Measurements reported in article doi:10.1101/2022.07.01.498528 (bioRxiv, 2022).

How the values were obtained:
[1] = molecular target: CMY-16 β-lactamase (Proteus mirabilis entry (host isolate …, UniProt Q4LCT4, strain)); assay: ELISA
[2] = molecular target: CMY-42 β-lactamase (Escherichia coli entry (host isolate …, UniProt F4YXC2, strain)); assay: ELISA
[3] = molecular target: CMY-61 β-lactamase (Escherichia coli entry (host isolate …, UniProt G3F7G9, strain)); assay: ELISA
[4] = molecular target: CMY-58 β-lactamase (Escherichia coli entry (host isolate …, UniProt F1C3E3, strain)); assay: ELISA
[5] = molecular target: CMY-60 β-lactamase (Escherichia coli entry (host isolate …, UniProt G3F7G8, strain)); assay: ELISA
[6] = molecular target: CMY-1 β-lactamase (class C) (Klebsiella pneumoniae, CMY-1, UniProt P71420, strain); assay: BLI
[7] = molecular target: AmpC P99 of Enterobacter cloacae (class C β-lactamase) (Enterobacter cloacae P99, UniProt P05364); assay: BLI
[8] = molecular target: TEM-1 β-lactamase (class A) (Escherichia coli (assumed), TEM-1, UniProt P62593); assay: BLI
[9] = molecular target: VIM-4 β-lactamase (class B) (Pseudomonas aeruginosa, VIM-4, UniProt Q8KRJ3, strain); assay: BLI
[10] = molecular target: OXA-48 β-lactamase (class D) (Klebsiella pneumoniae, OXA-48, UniProt Q6XEC0); assay: BLI
Chain of OXA-48 β-lactamase (class D) (Q6XEC0 23-265): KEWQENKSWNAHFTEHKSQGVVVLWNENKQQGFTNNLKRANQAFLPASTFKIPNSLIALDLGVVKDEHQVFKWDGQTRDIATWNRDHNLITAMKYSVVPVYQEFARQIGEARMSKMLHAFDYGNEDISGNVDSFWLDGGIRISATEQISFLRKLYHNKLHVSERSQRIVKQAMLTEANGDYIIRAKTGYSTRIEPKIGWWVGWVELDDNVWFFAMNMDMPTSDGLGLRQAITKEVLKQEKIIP

Chain of TEM-1 β-lactamase (class A) (P62593 24-286): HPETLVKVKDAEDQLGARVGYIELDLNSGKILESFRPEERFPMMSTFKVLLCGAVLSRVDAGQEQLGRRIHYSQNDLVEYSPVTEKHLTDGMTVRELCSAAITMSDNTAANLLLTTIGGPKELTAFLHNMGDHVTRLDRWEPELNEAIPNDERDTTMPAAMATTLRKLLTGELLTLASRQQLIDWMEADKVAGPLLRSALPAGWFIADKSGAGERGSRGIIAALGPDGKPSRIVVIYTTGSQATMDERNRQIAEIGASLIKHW
Chain of AmpC P99 of Enterobacter cloacae (class C β-lactamase) (P05364 21-381): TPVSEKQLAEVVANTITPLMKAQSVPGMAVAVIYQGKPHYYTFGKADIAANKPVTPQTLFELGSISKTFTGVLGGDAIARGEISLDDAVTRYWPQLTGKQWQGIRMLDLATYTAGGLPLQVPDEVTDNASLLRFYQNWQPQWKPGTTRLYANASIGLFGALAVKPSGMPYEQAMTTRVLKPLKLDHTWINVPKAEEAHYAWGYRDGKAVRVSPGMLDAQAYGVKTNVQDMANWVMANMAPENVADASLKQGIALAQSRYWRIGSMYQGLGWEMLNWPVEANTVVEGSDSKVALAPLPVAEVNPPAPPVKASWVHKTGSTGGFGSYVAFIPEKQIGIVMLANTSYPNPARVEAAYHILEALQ

Row | Binder | binding result [1] | binding result [2] | binding result [3] | binding result [4] | binding result [5] | binding result [6] | binding result [7] | binding result [8] | binding result [9] | binding result [10]
1 | VHH cAb_(CMY-2)(254) (VHH) VHH: QVQLVESGGGMVQPGGSLRLSCAASGFTFSNYDMSWVRRAPGKGPEWVSTINTGGGSTSYADSVKGRFTISRDNAKNTLYLQMNSLKPEDTALYYCTIDRGLHYSDLGEYDYWGQGTQVTVSS | binds | binds | binds | binds | binds | no binding (tested: 500 nM) | no binding (tested: 500 nM) | no binding (tested: 500 nM) | no binding (tested: 500 nM) | no binding (tested: 500 nM)
2 | VHH cAb_(CMY-2)(272) (VHH) VHH: QVQLVESGGGLVQPGGSLRLSCAASGSIFMIYAMGWYRQAPGKQRELVADITSGGSTDYTDSVKGRFTISRDKNTVYLQMNSLKPEDTAVYYCNADHGPGFGYDYWGQGTQVTVSS | – | – | – | – | – | no binding (tested: 500 nM) | no binding (tested: 500 nM) | no binding (tested: 500 nM) | no binding (tested: 500 nM) | no binding (tested: 500 nM)
3 | VHH cAb_(CMY-2)(250) (VHH) VHH: QVQLVESGGGLVQPGGSLRLSCAASGSIFSIYGMGWYRQAPGKQRELVAEITSGGSTNYADSVKGRFTISRDNAKNTVYLQMNSLNPEDTAVYYCNADGTMWGAGDYWGQGTQVTVSS | – | – | – | – | – | – | binds | no binding (tested: 500 nM) | no binding (tested: 500 nM) | no binding (tested: 500 nM)
